This is an account of results in patent US12692524B2, “Sialyltransferases and their use in producing sialylated oligosaccharides” (Chr. Hansen A/S, priority 2017, dated 2026).

A short description of assay [1]: In vitro sialylation of LNT by protein extracts, LST-a/-b quantified by LC-MS/MS. It is filed as biochemical. The settings on record: 5 mM LNT, 10 mM CMP-Neu5Ac, 16 hours, LC-MS/MS; relative quantity; n.d.: not detectable. Here is the method:
Escherichia coli BL21(DE3) harbouring plamids encoding for 100 sialyltransferases were grown at 30° C. in 100 ml shake flasks filled with 20 ml of 2YT medium supplemented with ampicillin 100 μg ml^−1. When the cultures reached an OD600 of 0.1 to 0.3, gene expression was induced by addition of 0.3 mM IPTG and the incubation was continued for 12 to 16 hours. Cells were harvested by centrifugation and mechanically disrupted in a defined volume of 50 mM Tris-HCl pH7.5 using glass beads. The protein extract was kept on ice until the assay started. The in vitro assay was carried out in a total volume of 25 μl including 50 mM Tris-HCl pH7.5, 5 mM MgCl2, 10 mM CMP-Neu5Ac and 5 mM LNT. The assay started with the addition of 3 μl protein extract and continued for 16 hours. Product formation was determined by mass spectrometry.
Mass spectrometry analysis was performed by MRM (multiple reaction monitoring) using a LC Triple-Quadrupole MS detection system. Precursor ions are selected and analyzed in quadrupole 1, fragmentation takes place in the collision cell using argon as CID gas, selection of fragment ions is performed in quadrupole 3. Chromatographic separation of lactose, 3′-Sialyllactose and 6′-Sialyllactose after dilution of culture supernatant 1:100 with H2O (LC/MS Grade), was performed on a XBridge Amide HPLC column (3.5 μm, 2.1×50 mm (Waters, USA) with a XBridge Amide guard cartridge (3.5 μm, 2.1×10 mm) (Waters, USA). Column oven temperature of the HPLC system was 50° C. The mobile phase was composed of acetonitrile:H2O with 10 mM ammonium acetate. A 1 μl sample was injected into the instrument; the run was performed for 3.60 min with a flow rate of 400 μl/min. 3′-Sialyllactose and 6′-Sialyllactose were analyzed by MRM in ESI positive ionization mode. The mass spectrometer was operated at unit resolution. Sialyllactose forms an ion of m/z 656.2 [M+Na]. The precursor ion of Sialyllactose was further fragmented in the collision cell into the fragment ions m/z 612.15, m/z 365.15 and m/z 314.15. Collision energy, Q1 and Q3 Pre Bias were optimized for each analyte individually. Chromatographic separation of lactose, LNT-II, LNT and LST-a or -b after dilution of particle-free biocatalysis-reaction or crude extract, respectively, 1:50 with H2O (LC/MS Grade), was performed on a XBridge Amide HPLC column (3.5 μm, 2.1×50 mm (Waters, USA) with a XBridge Amide guard cartridge (3.5 μm, 2.1×10 mm) (Waters, USA). Column oven was run at 35° C. The mobile phase was composed of acetonitrile:H2O with 0.1% ammonium hydroxide. A 1 μl sample was injected into the instrument; the run was performed for 3.50 min with a flow rate of 300 μl/min. Lactose, LNT-II, LNT as well as LST-a and -b were analyzed by MRM in ESI negative ionization mode. The mass spectrometer was operated at unit resolution. Lactose forms an ion of m/z 341.00 [M−H]. The precursor ion of Lactose was further fragmented in the collision cell into the fragment ions m/z 179.15, m/z 161.15 and m/z 101.05. LNT-II forms an ion of m/z 544.20 [M−H]. The precursor ion of LNT-II was further fragmented into the fragment ions m/z 382.10, m/z 161.00 and m/z 112.90. LNT forms an ion of m/z 706.20 [M−H]. The precursor ion of LNT was further fragmented into the fragment ions m/z 382.10, m/z 202.10 and m/z 142.00. LST-a and -b forms an ion of m/z 997.20 [M−H]. The precursor ion of LST-a and-b was further fragmented into the fragment ions m/z 290.15, m/z 202.15 and m/z 142.15. Collision energy, Q1 and Q3 Pre Bias were optimized for each analyte individually. Quantification methods were established using commercially available standards (Carbosynth, Compton, UK).
Twenty eight genes were identified to produce LST-a whereas only 6 enzymes synthesized LST-b. […] Irrespectively of the protein overexpression level, sialyltransferases that produced best were selected for determination of Km and Vmax.

Assay [2] can be described thus: In vivo screening in E. coli #1363/#1730 with lactose as acceptor, sialyllactose identified by TLC. The settings on record: 1.5 mM lactose, 72 to 96 hours, qualitative via TLC. It is filed as cell-based, Escherichia coli BL21(DE3). The method, then:
Escherichia coli BL21(DE3) #1363 and #1730 harbouring plasmids encoding for 100 sialyltransferases were grown at 30° C. in 100 ml shake flasks filled with 20 ml of mineral salts medium (Samain et al., J. Biotech. 1999, 72:33-47) supplemented with 2% (wt/vol) glucose, ampicillin 100 μg ml^−1, kanamycin 15 μg ml^−1 and zeocin 40 μg ml^−1. When the cultures reached an OD600 of 0.1 to 0.3, gene expression was induced by addition of 0.3 mM IPTG. After an incubation for one hour, 1.5 mM lactose was added to #1363 cultures whereas 1.5 mM lactose as well as 1.5 mM sialic acid was added to #1730 cultures. The incubation continued for 72 to 96 hours. Then, cells were harvested by centrifugation and mechanically disrupted in a defined volume using glass beads. Subsequently, samples were applied to thin layer chromatography (TLC) on Silica Gel 60 F254 (Merck KGaA, Darmstadt, Germany). A mixture of butanol:acetone:acetic acid:H2O (35/35/7/23 (v/v/v/v)) was used as mobile phase. For detection of the separated substances, the TLC plate was soaked with thymol reagent (0.5 g thymol solved in 95 ml ethanol, 5 ml sulfuric acid added) and heated.
In the entire screening, thirty two genes were identified to encode for α-2,3-sialyltransferases, thus producing 3′-SL. 19 enzymes synthesized 6′-SL and were depicted as α-2,6-sialyltransferases. An α-2,3- as well as an α-2,6-sialyltransferase activity could only be observed for 3 enzymes. […] The screening appeared highly accurate since the described activities of extensively characterized sialyltransferases, e. g. […] Regarding the product formation, the experimental setting allowed a semi-quantitative comparison of the screened enzymes. But to achieve deeper knowledge about their kinetic properties, the 3 potentially best performing α-2,3- and α-2,6-sialyltransferases were applied to in vitro assays.

B1: SiaT13: sialyltransferase of Streptococcus agalactiae, acc. AB050723, SEQ ID NO: 17 (protein, listed as Streptococcus agalactiae)
chain: MTNRKIYVCHTLYHLLICLYKEEIYSNLEIILSSSIPDVDNLEKKLKSKTINIHILEESSGESEELLSVLKDAGLSYSKFDSNCFIFNDATPIGRTLIKHGIYYNLIEDGLNCFTYSIFSQKLWKYYVKKYILHKIQPHGFSRYCLGIEVNSLVNLPKDPRYKKFIEVPRKELFDNVTEYQKEMAINLFGAVRVSIKSPSVLVLTQPLSIDKEFMSYNNKIETSEEQFNFYKSIVNEYINKGYNVYLKVHPRDVVDYSKLPVELLPSNVPMEIIELMLTGRFECGITHSSTALDFLTCVDKKITLVDLKDIK
For the molecule B1, the “Relative efficacy of sialyltransferases regarding in-vitro production of sialyllacto-N-tetraoses: LST-a” value (shortened to “Relative efficacy”) in assay [1] is given as 24. Further, the “Production of sialyllactose in-vivo” value in assay [2] is 3′-SL.

B2: SiaT10: sialyltransferase of Pasteurella multocida PM70, acc. AAK02272, SEQ ID NO: 4 (protein, listed as Pasteurella multocida)
chain: MKTITLYLDPASLPALNQLMDFTQNNEDKTHPRIFGLSRFKIPDNIITQYQNIHFVELKDNRPTEALFTILDQYPGNIELDIHLNIAHSVQLIRPILAYRFKHLDRVSIQRLNLYDDGSMEYVDLEKEENKDISAEIKQAEKQLSHYLLTGKIKFDNPTIARYVWQSAFPVKYHFLSTDYFEKAEFLQPLKEYLAENYQKMDWTAYQQLTPEQQAFYLTLVGFNDEVKQSLEVQQAKFIFTGTTTWEGNTDVREYYAQQQLNLLNHFTQAGGDLFIGDHYKIYFKGHPRGGEINDYILNNAKNITNIPANISFEVLMMTGLLPDKVGGVASSLYFSLPKEKISHIIFTSNKQVKSKEDALNNPYVKVMRRLGIIDESQVIFWDSLKQL
Turning to B2, the “Relative efficacy” value in assay [1] is 3.18 × 10^3. Moreover, in assay [2], the “Production of sialyllactose in-vivo” value is 3′-SL, 6′-SL.

B3: SiaT16: sialyltransferase of Haemophilus ducreyi 35000HP, acc. AAP95068, SEQ ID NO: 27 (protein, listed as Haemophilus ducreyi)
chain: MLIQQNLEIYLDYATIPSLACFMHFIQHKDDVDSIRLFGLARFDIPQSIIDRYPANHLFYHNIDNRDLTAVLNQLADILAQENKRFQINLHLNLFHSIDLFFAIYPIYQQYQHKISTIQLQLYDDGSEGIVTQHSLCKIADLEQLILQHKNVLLELLTKGTANVPNPTLLRYLWNNIIDSQFHLISDHFLQHPKLQPLKRLLKRYTILDFTCYPRFNAEQKQLLKEILHISNELENLLKLLKQHNTFLFTGTTAFNLDQEKLDLLTQLHILLLNEHQNPHSTHYIGNNYLLLIKGHANSPALNHTLALHFPDAIFLPANIPFEIFAMLGFTPNKMGGFASTSYINYPTENINHLFFLTSDQPSIRTKWLDYEKQFGLMYSLLAMQKINEDQAFMCTIHN
Take B3: in assay [1], the “Relative efficacy” value stood at 1. Moreover, the “Production of sialyllactose in-vivo” value in assay [2] is 3′-SL.

B4: SiaT14: sialyltransferase of Haemophilus-somnus-2336, acc. ACA31578, SEQ ID NO: 26 (protein, listed as Haemophilus somnus)
chain: MFREDNMNLIICCTPLQVIIAEKIIERYPEQKFYGVMLESFYNDKFDFYENKLKHLCHEFFCIKIARFKLERYKNLLSLLKIKNKTFDRVFLANIEKRYIHIILSNIFFKELYTFDDGTANIAPNSHLYQEYDHSLKKRITDILLPNHYNSNKVKNISKLHYSIYRCKNNIIDNIEYMPLFNLEKKYTAQDKSISILLGQPIFYDEEKNIRLIKEVIAKFKIDYYFPHPREDYYIDNVSYIKTPLIFEEFYAERSIENSIKIYTFFSSAVLNIVTKENIDRIYALKPKLTEKAYLDCYDILKDFGIKVIDI
As for B4, the “Relative efficacy” value in assay [1] was determined as 2. Moreover, the “Production of sialyllactose in-vivo” value in assay [2] is given as 3′-SL.

B5: SiaT15: sialyltransferase of Haemophilus ducreyi 35000HP, acc. AF101047, SEQ ID NO: 14 (protein, listed as Haemophilus ducreyi)
chain: MKEIAIISNQRMFFLYCLLTNKNVEDVFFIFEKGAMPNNLTSISHFIVLDHSKSECYDFFYFNFISCKYRLRGLDVYGADHIKGAKFFLERHRFFVVEDGMMNYSKNMYAFSLFRTRNPVILPGGFHPNVKTIFLTKDNPIPDQIAHKREIINIKTLWQAKTATEKTKILSFFEIDMQEISVIKNRSFVLYTQPLSEDKLLTEAEKIDIYRTILTKYNHSQTVIKPHPRDKTDYKQLFPDAYVMKGTYPSELLTLLGVNFNKVITLFSTAVFDYPKEKIDFYGTAVHPKLLDFFD
Regarding B5, the “Relative efficacy” value in assay [1] was found to be 204. The “Production of sialyllactose in-vivo” value in assay [2] is listed as 3′-SL.

B6: SiaT2: sialyltransferase of Campylobacter jejuni strain OH4384, acc. AF130466, SEQ ID NO: 10 (protein, listed as Campylobacter jejuni)
chain: MTRTRMENELIVSKNMQNIIIAGNGPSLKNINYKRLPREYDVFRCNQFYFEDKYYLGKKIKAVFFNPGVFLQQYHTAKQLILKNEYEIKNIFCSTFNLPFIESNDFLHQFYNFFPDAKLGYEVIENLKEFYAYIKYNEIYFNKRITSGVYMCAIAIALGYKTIYLCGIDFYEGDVIYPFEAMSTNIKTIFPGIKDFKPSNCHSKEYDIEALKLLKSIYKVNIYALCDDSILANHFPLSININNNFTLENKHNNSINDILLTDNTPGVSFYKNQLKADNKIMLNFYNILHSKDNLIKFLNKEIAVLKKQTTQRAKARIQNHLSYKLGQALIINSKSVLGFLSLPFIILSIVISHKQEQKAYKFKVKKNPNLALPPLETYPDYNEALKEKECFTYKLGEEFIKAGKNWYGEGYIKFIFKDVPRLKREFEKGE
As to B6, the “Relative efficacy” value in assay [1] is reported as 749. Further, the “Production of sialyllactose in-vivo” value in assay [2] is 3′-SL.
